± gives the half width of the 95% confidence interval. A value given as a limit tells only on which side of the number the result lay.

A short description of this data set: folding stability dG unfold (combined trypsin and chymotrypsin); higher = more stable. Here is the method:
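Folding stability of de novo designed mini-proteins (<80 aa, no Cys; designed by TrROS, TrMRF, ProteinMPNN and the joint model) was measured by cDNA display proteolysis with trypsin and chymotrypsin. Each protease was used at 11 concentrations in a threefold dilution series plus a no-protease condition. K50 was inferred by Bayesian fitting of sequencing counts, and dG unfold was derived against a sequence-predicted unfolded-state K50 (Tsuboyama et al. method). Sequences shown include variable-length N-terminal GS-type padding (SAGGSAGG...) inside a display construct carrying a PA tag. Rows were kept only if the AF2 dimer inter-PAE was >15, to exclude likely homo-oligomers.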
For “SAGGSAGGSSDIKIYEIPEKGEIVVERPPSEKVTIDINNHPLEGSLTPLPGNKYLWKVKIKSPSAGGSAGGS [r12_970_JUSTAS]”, the “folding stability dG unfold” value was less than -1 kcal/mol. In the case of “SAGGSAGGSSHMEVEKAAKELSSEVGFEKSSNGPDSVSFTFDPAKPELVRALAEKFGIDLKVESAGGSAGGS [r12_74_JUSTAS]” it was less than -1 kcal/mol; in that of “SAGGSAGGSSLAEEIARLLGLESETLSESVSPTPRSLTLTRFKPPEDGELIVFYDGEVPTILPSAGGSAGGS [r12_279_JUSTAS]”, less than -1 kcal/mol. As to “SAGGSAGGSSMPSDVPVDIPVKVTRTVPNGPTSEEELVLSTTRPDASIEEVLEELKKKGWTIESAGGSAGGS [r20_27_JUSTAS]”, the “folding stability dG unfold” value was less than -1 kcal/mol. In the case of “SAGGSAGGSSPKRTIEITLPKDASEEELQATANAIAKELGAPNVQVEVSPVPEDYRLVKVIVESAGGSAGGS [r20_208_JUSTAS]” it was less than -1 kcal/mol; in that of “SAGGSAGGSSPPDATIPREEAEKYVKEKVREENLKAGKPLKKVKKLIVKEDPNSDNVKVTVIESAGGSAGGS [r12_583_JUSTAS]”, less than -1 kcal/mol; in that of “SAGGSAGGSSWDEVREIAREARKEGFPMVSIRYDDKNTHQINFEDGPIEPLPNPDNVKIEIMRSAGGSAGGS [r20_44_TrROS]”, less than -1 kcal/mol. To “SAGGSAGGSSYTLVRVVEHPDSVVEYYKAPDGTVIVKRNDEEIEIPPSVPASSLPEDADVVLESAGGSAGGS [r12_594_JUSTAS]” belongs less than -1 kcal/mol; to “SAGGSAGGSTAEEVAEALGFEEAEVTPTGLVEVRKLPNGGYARAYRYTLKLRSPDGTERTFPISAGGSAGGS [r12_221_TrMRF]”, less than -1 kcal/mol; to “SAGGSAGGSTAGEAESEEISVEPLPDGPYLVTRSVVRTLPDGSSEVTETVPSIATDPAEIAEASAGGSAGGS [r12_386_JUSTAS]”, less than -1 kcal/mol.

Turning to “SAGGSAGGSVIRIPPDDLRANLKPGMMVMIKDPGKPRMFPWDDLDKLPPNDPVEIEIIPMEPGSAGGSAGGS [r12_501_TrROS]”, the “folding stability dG unfold” value was less than -1 kcal/mol. In the case of “SAGGSAGGSVVIPMEDLSNMPWERIRDQIKKSPDPVTITMPNPEGMKRAQDLFKEEGVPITVVSAGGSAGGS [r12_97_TrROS]” it was less than -1 kcal/mol; in that of “SAGGSAGGSYPFRIKIVNPNGKKIIPIPYQFDPEDGKLEPFTEDQLDEIAKQLGPNFKKIEIYSAGGSAGGS [r12_514_TrROS]”, less than -1 kcal/mol. In the case of “SAGGSAGGWIEIDPNDGKLEILYPPGMNPDELTDFIEEFGFPFKPKSVEYNPDNGMRKVEFKFKSAGGSAGG [r6_396_TrROS]”, the “folding stability dG unfold” value is less than -1 kcal/mol. On to “SAGGSAGGYEIPIKIKITNPDNNKPVTFEIPIRYDKDNGRPPSPEQIARELAERSPGFKITEIESAGGSAGG [r6_821_TrROS]”, for which the “folding stability dG unfold” value is less than -1 kcal/mol. In the case of “SAGGSAKPYIVIKGEYENPGKKHDMDIQIPPEDLDNPERARELAEEIKDEMRQQGAPVKDVEIEPVSAGGSA [r15_781_TrROS]” it was less than -1 kcal/mol; in that of “SAGGSAMPVKIELVERKRDPNSDTYYATVKITNPNKTITLPIKLDVPEEEAEKEVKEKAEEIAKKGSAGGSA [r15_979_JUSTAS]”, less than -1 kcal/mol. With “SAGGSAPENDPWVWRVKIPYKKKNPNGEPERREREITFPFKSPEDAENFRDALREDGAEIEPVEPMSAGGSA [r15_117_TrROS]”, the “folding stability dG unfold” value is less than -1 kcal/mol. To “SAGGSAPFQIKEPDGKTETFPMNDIPPDLIKNFPDVKITMPGGQERKIPPGQKLSPGGMMTIQIPKSAGGSA [r15_733_TrROS]” belongs less than -1 kcal/mol. In the case of “SAGGSAPIEIEVRLGDKPRTIDIEPNPEGMYPIKVYNDGPGKPKEHMIPPNNLDELKNLDPDRIEISAGGSA [r15_629_TrROS]”, the “folding stability dG unfold” value is less than -1 kcal/mol.

With “SAGGSARKITIDVQPHPNGEFPINVKIRGPNGEPKKERPFNFDSPQAAKNKLKDFADKNGYEVEIWSAGGSA [r15_242_TrROS]”, the “folding stability dG unfold” value is less than -1 kcal/mol. In the case of “SAGGSATIEIDPPHGKIEIEVNVPVYEKRKDPDGKEEPEPQELPPEEAQEFAKMMADTFAQKLNGKSAGGSA [r15_365_TrROS]” it was less than -1 kcal/mol. To “SAGGSMETIELTINLGSKTITKTEEVSPGREEELIEKIREEGYPEIKVDKITIKPPDGSTERTIGLKSAGGS [r8_219_JUSTAS]” belongs less than -1 kcal/mol; to “SAGGSMKPSELANLIAEKLREKVDPNKTVRIVLEVGEGPVEFEIPSGKKIDIPENVPIKGYKVEVGSAGGSA [r2_391_TrMRF]”, less than -1 kcal/mol; to “SAGGSMTLYVRLPDRTVEADEVTVPPNGPALVRYRITDPEGEEPEIVVEPEELAELFGLTPEEIEGSAGGSA [r2_262_TrMRF]”, less than -1 kcal/mol. In the case of “SAGGSMTTTLDFSDDSTTTITTTPTPDSSSVRSITTTDASGNPLSSTTLNFDPQGNVTETTTSSAPSAGGSA [r2_260_JUSTAS]”, the “folding stability dG unfold” value was less than -1 kcal/mol. To “SAGGSMVVTTEPDGSVTVTTSASSPEEAKASVIAYLKEQGLKVKSLPVEVPPDGSVTVTLPVEPPLESAGGS [r8_253_JUSTAS]” belongs less than -1 kcal/mol; to “SAGGSVRAVEVRLYRPEGDFPVIEIDVEAPASFPDDPELRERAARSVAGPLTRELLEELGLVPIGPSAGGSA [r2_306_TrMRF]”, -0.793 ± 0.52 kcal/mol. Turning to “SAGGTIKDLLRELPGFDSVEVDEDSGVIYVRNPDRYYKIEIPVQKQPDDDGKDRPITPVKIEPYPPNSAGGS [r16_65_TrROS]”, the “folding stability dG unfold” value is less than -1 kcal/mol. In the case of “SAGGTVEELLRRVPFVEEAVVDVDSGVAYVRVPDRYYVVRVPLVAEPDEDGVLRPRTPVEVEPFAPESAGGS [r16_65_TrMRF]” it was less than -1 kcal/mol; in that of “SAGIKIEWDPDEGYIKIEMPYDSPAEANENIQEIHEKFGLKDVTAERDPNNGTVEHTIRIKNPEALKELSAG [r5_598_TrROS]”, less than -1 kcal/mol; in that of “SAGITIDELRNQPPKKRVTEVNWNPNQGNYRVEVVRPDPDGKPKKHEYEVNSPQQIRDKLKNGFDYIHISAG [r5_905_TrROS]”, less than -1 kcal/mol. Turning to “SAGMQTKTLAETKENGKITVTTLTTTESGEETTVTETIEVGPVPIPPLTVEVRLRPDGRLEFEYHIPLSAGG [r19_172_JUSTAS]”, the “folding stability dG unfold” value is -0.861 ± 0.51 kcal/mol. To “SAGMTTTETIEFPDSTTATVTSVEEGPTPNGTPVTTRTVTVTTYTPLRDADGKLLGEVPQTSTSTLTVASAG [r5_476_JUSTAS]” belongs less than -1 kcal/mol; to “SAGMVIPATSEEEAEAFAKELGPETGYEVEIEKVPADEPVEDVDPNDILVVLPESGTVYRIHVRRPDEESAG [r5_173_TrMRF]”, less than -1 kcal/mol; to “SAGSASPVVLKLTDPSSDKTYLVEVEVPEEEATWTLRDPSNGKEVEKVKMTLEELYAELKKKGLNPEPLSAG [r5_291_JUSTAS]”, less than -1 kcal/mol. To “SAGSPADVVPLEIPFVTEDGSRVRATLLYDPATGEVTVPIETEDPALGRRAAAFARRLAEELGAPDVRPSAG [r5_99_TrMRF]” belongs less than -1 kcal/mol; to “SAGYELKILKAEVKDGEIDIPILHPDGRPSTARIKVELVEGEDGIPRPVLKIEIPEEELKNSIPPELLKSAG [r5_462_TrMRF]”, less than -1 kcal/mol; to “SAMLVVKNKKTKKPIEIKIDPSMTPEEIKKKIEKLPDIPEEQKKEVEEAIELYIKLLENPELAKKFEKESAG [r14_732_TrMRF]”, less than -1 kcal/mol. With “SAPYIRKVTYTTTFYPPDGTPVQSTKPTTEPVDPAEKDTTTTSTTALPDGGSVTTTSTTTVEPAEPALLSAG [r14_268_JUSTAS]”, the “folding stability dG unfold” value was less than -1 kcal/mol.

Regarding “SASPLVPVETEVLEEETLPDGTLRILTRRTVGDTTILDVRDRGPGGEILRESSSVDTSSNTTTRDVSVLSAG [r14_189_JUSTAS]”, the “folding stability dG unfold” value was less than -1 kcal/mol.

These data come from the supplement of paper PMC12764529.
